This note sets out measurements from article PMC10419091.

Data set [1] is described as follows: viscosimetry; falling-ball micro-viscometer, 20 °C; Tpm 2 mg/mL in 30 mM Hepes-Na pH 7.3, 100 mM NaCl, 4 mM DTT; viscosity over buffer viscosity; end-to-end interaction of adjacent Tpm molecules. The note with it: other: viscosimetry.
In data set [2] the target is filamentous actin (F-actin) from rabbit m. psoas (rabbit) (UniProt P68135). Put plainly: co-sedimentation; 10 µM F-actin with 0.5 to 7.5 µM Tpm in 30 mM Hepes-Na pH 7.3, 200 mM NaCl; 40 min at 25 °C, then 40 min at 100,000 g at 4 °C; supernatants and pellets by SDS-PAGE; apparent affinity (K50%: Tpm concentration at which half of the actin is saturated).
Data set [3] has the same target. Put plainly: temperature dependence of light scattering; thermally induced dissociation of Tpm from phalloidin-stabilized F-actin; 20 µM F-actin, 10.5 µM Tpm, 30 mM Hepes-Na pH 7.3, 100 mM NaCl; light scattering at 90°, 350 nm, heating 1 °C/min; Tdiss: temperature of a 50% decrease.

With “human E98K Tpm1.1 mutant (cardiac tropomyosin 1.1 with Glu98Lys), recombinant, with Ala-Ser N-terminal extension”, the “viscosity after subtraction of the buffer viscosity” value in data set [1] stood at 0.28 ± 0.01 mPa∙s.

“human E98K Tpm1.1 mutant (cardiac tropomyosin 1.1 with Glu98Lys), recombinant, with Ala-Ser N-terminal extension (natural protein)”: in data set [2], the K50% amounted to 2.57 µM. In data set [3], the Tdiss turned out to be 42.4 °C.

With “wild-type cardiac tropomyosin 1.1 isoform (Tpm1.1), recombinant, with Ala-Ser N-terminal extension”, the “viscosity after subtraction of the buffer viscosity” value in data set [1] turned out to be 0.31 ± 0.01 mPa∙s.

As for “wild-type cardiac tropomyosin 1.1 isoform (Tpm1.1), recombinant, with Ala-Ser N-terminal extension (natural protein)”, in data set [2], the K50% is 2.45 µM. The substance further displayed a Tdiss in data set [3] of 45.5 °C.
